In the supplement of paper PMC12338614:
± gives the uncertainty stated by the source.

B1: library; numbered along this chain (parent)
chain: MEVVDPQQLGMFTEGELMSVGMDTFIHRIDSTEVIYQPRRKRAKLIGKYLMGDLLGEGSYGKVKEVLDSETLCRRAVKILKKKKLRRIPNGEANVKKEIQLLRRLRHKNVIQLVDVLYNEEKQKMYMVMEYCVCGMQEMLDSVPEKRFPVCQAHGYFCQLIDGLEYLHSQGIVHKDIKPGNLLLTTGGTLKISDLGVAEALHPFAADDTCRTSQGSPAFQPPEIANGLDTFSGFKVDIWSAGVTLYNITTGLYPFEGDNIYKLFENIGKGSYAIPGDCGPPLSDLLKGMLEYEPAKRFSIRQIRQHSWFRKKHPPAEAPVPIPPSPDTKDRWRSMTVVPYLEDLHGADEDEDLFDIEDDIIYTQDFTVPGQVPEEEASHNGQRRGLPKAVCMNGTEAAQLSTKSRAEGRAPNPARKACSASSKIRRLSACKQQ

Variants of: B1
Assay: STK11 functional score (HeLa growth suppression), rescaled enrichment; synonymous median = 1, nonsense median = 0 (normalised score)
Conditions: with HeLa; variant type: missense
Summary of the method: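 HeLa cells carrying an AAVS1 landing pad received codon-optimised STK11 libraries made by codon randomisation (POPCode), integrated by Bxb1, with three regions each transfected three times. Integrants that were BFP-negative and mCherry-positive were sorted by FACS 4–5 days after electroporation and then grown for about two weeks. Tiled amplicons from gDNA were sequenced on NextSeq at ~2 million reads per tile. The functional score is a wild-type-corrected log ratio of post- to pre-selection counts, rescaled to the synonymous and nonsense medians, merged across codons and replicate transfections, and given a bootstrapped error.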

Compared with MEVVDPQQLGMFTEGELMSVGMDTFIHRIDSTEVIYQPRRKRAKLIGKYLMGDLLGEGSYGKVKEVLDSETLCRRAVKILKKKKLRRIPNGEANVKKEIQLLRRLRHKNVIQLVDVLYNEEKQKMYMVMEYCVCGMQEMLDSVPEKRFPVCQAHGYFCQLIDGLEYLHSQGIVHKDIKPGNLLLTTGGTLKISDLGVAEALHPFAADDTCRTSQGSPAFQPPEIANGLDTFSGFKVDIWSAGVTLYNITTGLYPFEGDNIYKLFENIGKGSYAIPGDCGPPLSDLLKGMLEYEPAKRFSIRQIRQHSWFRKKHPPAEAPVPIPWSPDTKDRWRSMTVVPYLEDLHGADEDEDLFDIEDDIIYTQDFTVPGQVPEEEASHNGQRRGLPKAVCMNGTEAAQLSTKSRAEGRAPNPARKACSASSKIRRLSACKQQ [P324W], MEVVDPQQLGMFTEGELMSVGMDTFIHRIDSTEVIYQPRRKRAKLIGKYLMGDLLGEGSYGAVKEVLDSETLCRRAVKILKKKKLRRIPNGEANVKKEIQLLRRLRHKNVIQLVDVLYNEEKQKMYMVMEYCVCGMQEMLDSVPEKRFPVCQAHGYFCQLIDGLEYLHSQGIVHKDIKPGNLLLTTGGTLKISDLGVAEALHPFAADDTCRTSQGSPAFQPPEIANGLDTFSGFKVDIWSAGVTLYNITTGLYPFEGDNIYKLFENIGKGSYAIPGDCGPPLSDLLKGMLEYEPAKRFSIRQIRQHSWFRKKHPPAEAPVPIPPSPDTKDRWRSMTVVPYLEDLHGADEDEDLFDIEDDIIYTQDFTVPGQVPEEEASHNGQRRGLPKAVCMNGTEAAQLSTKSRAEGRAPNPARKACSASSKIRRLSACKQQ [K62A] is higher in STK11 functional score: 0.731 ± 0.099 for the first, 1.7 ± 0.31 for the second.

First: MEVVDPQQLGMFTEGELMSVGMDTFIHRIDSTEVIYQPRRKRAKLIGKYLMGDLLGEGSYGKVKEVLDWETLCRRAVKILKKKKLRRIPNGEANVKKEIQLLRRLRHKNVIQLVDVLYNEEKQKMYMVMEYCVCGMQEMLDSVPEKRFPVCQAHGYFCQLIDGLEYLHSQGIVHKDIKPGNLLLTTGGTLKISDLGVAEALHPFAADDTCRTSQGSPAFQPPEIANGLDTFSGFKVDIWSAGVTLYNITTGLYPFEGDNIYKLFENIGKGSYAIPGDCGPPLSDLLKGMLEYEPAKRFSIRQIRQHSWFRKKHPPAEAPVPIPPSPDTKDRWRSMTVVPYLEDLHGADEDEDLFDIEDDIIYTQDFTVPGQVPEEEASHNGQRRGLPKAVCMNGTEAAQLSTKSRAEGRAPNPARKACSASSKIRRLSACKQQ [S69W]
Second: MEVVDPQQLGMFTEGELMSVGMDTFIHRIDSTEVIYQPRRKRAKLIGKYLMGDLLGEGSYGKVKEVLDSETLCRRAVKILKKKKLRRIPNGEANVKKEIQLLRRLRHKNVIQLVDVLYNEEKQKMYMVMEYCVCGMQEMLDSVPEKRFPVCQAHGYFCQLIDGLEYLHSQGIVHKDIKPGNLLLTTGGTLKISDLGVAEALHPFAADDTCRTSQGSPAFQPPEIANGLDSFSGFKVDIWSAGVTLYNITTGLYPFEGDNIYKLFENIGKGSYAIPGDCGPPLSDLLKGMLEYEPAKRFSIRQIRQHSWFRKKHPPAEAPVPIPPSPDTKDRWRSMTVVPYLEDLHGADEDEDLFDIEDDIIYTQDFTVPGQVPEEEASHNGQRRGLPKAVCMNGTEAAQLSTKSRAEGRAPNPARKACSASSKIRRLSACKQQ [T230S]
The STK11 functional score of the first is lower: 0.118 ± 0.084 for the first, 0.93 ± 0.097 for the second.

Compared with MEVVDPQQLGMFTEGELMSVGMDTFIHRIDSTEVIYQPRRKRAKLIGKYLMGDLLGEGSYGKVKEVLDSETLCRRAVKILKKKKLRRIPNGEANVKKEIQLLRRLRHKNVIQLVDVLYNEEKQKMYMVMEYCVCGMQEMLDSVPEKRFPVCQAHGYFCQLIDGLEYLHSQGIVHKDIKPGNLLLTTGGTLKISDLGVAEALHPFAADDTCRTSQGSPAFQPPEIANGLDTFSGFKVDIWSAGVTLYNITTGLYPFEGDNIYKLFENIGKGSYAIPGDCGPPLSDLLKGMVEYEPAKRFSIRQIRQHSWFRKKHPPAEAPVPIPPSPDTKDRWRSMTVVPYLEDLHGADEDEDLFDIEDDIIYTQDFTVPGQVPEEEASHNGQRRGLPKAVCMNGTEAAQLSTKSRAEGRAPNPARKACSASSKIRRLSACKQQ [L290V], MEVVDPQQLGMFTEGELMSVGMDTFIHRIDSTEVIYQPRRKRAKLIGKYLMGDLLGEGSYGKVKEVLDSETLCRRAVKILKKKKLRRIPNGEANVKKEIQLLRRLRHKNVIQLVDVLYNEEKQKMYMVMEYCVCGMQEMLDSVPEKRFPVCQAHGYFCQLIDGLEYLHSQGIVHKDIKPGNLLLTTGGTLKISDLGVAEALHPFAADDTCRTSQGSPAFQPPEIANGLDTFSGFKVDIWSAGVTLYNITTGLYPFEGDNIYKLFENIGKGSYAIPGDCGPPLSDLLKGMLEYEPAKRFSIRQIRQHSWFRKKHPAAEAPVPIPPSPDTKDRWRSMTVVPYLEDLHGADEDEDLFDIEDDIIYTQDFTVPGQVPEEEASHNGQRRGLPKAVCMNGTEAAQLSTKSRAEGRAPNPARKACSASSKIRRLSACKQQ [P315A] is higher in STK11 functional score: 0.625 ± 0.089 for the first, 1.07 ± 0.15 for the second.

MEVVDPQQLGMFTEGELMSVGMDTFIHRIDSTEVIYQPRRKRAKLIGKYLMGDLLGEGSYGKVKEVLDSETLCRRAVKILKKKKLRRIPNGEANVKKEIQLLRRLRHKNVIQLVDVLYNEEKQKMYMVMEYCVCGMQEMLDSVPEKRFPVCQAHGYFCQLIDGLEYLHSQGIVHKDIKPGNLLLTTGGTLKISDLGVAEALHPFAADDTCRTSQGSPAFQPPEIANGLDTFSGFKVDIWSPGVTLYNITTGLYPFEGDNIYKLFENIGKGSYAIPGDCGPPLSDLLKGMLEYEPAKRFSIRQIRQHSWFRKKHPPAEAPVPIPPSPDTKDRWRSMTVVPYLEDLHGADEDEDLFDIEDDIIYTQDFTVPGQVPEEEASHNGQRRGLPKAVCMNGTEAAQLSTKSRAEGRAPNPARKACSASSKIRRLSACKQQ [A241P] and MEVVDPQQLGMFTEGELMSVGMDTFIHRIDSTEVIYQPRRLRAKLIGKYLMGDLLGEGSYGKVKEVLDSETLCRRAVKILKKKKLRRIPNGEANVKKEIQLLRRLRHKNVIQLVDVLYNEEKQKMYMVMEYCVCGMQEMLDSVPEKRFPVCQAHGYFCQLIDGLEYLHSQGIVHKDIKPGNLLLTTGGTLKISDLGVAEALHPFAADDTCRTSQGSPAFQPPEIANGLDTFSGFKVDIWSAGVTLYNITTGLYPFEGDNIYKLFENIGKGSYAIPGDCGPPLSDLLKGMLEYEPAKRFSIRQIRQHSWFRKKHPPAEAPVPIPPSPDTKDRWRSMTVVPYLEDLHGADEDEDLFDIEDDIIYTQDFTVPGQVPEEEASHNGQRRGLPKAVCMNGTEAAQLSTKSRAEGRAPNPARKACSASSKIRRLSACKQQ [K41L] are within error of each other in STK11 functional score: 0.702 ± 0.45 for the first, 1.27 ± 0.24 for the second.

MEVVDPEQLGMFTEGELMSVGMDTFIHRIDSTEVIYQPRRKRAKLIGKYLMGDLLGEGSYGKVKEVLDSETLCRRAVKILKKKKLRRIPNGEANVKKEIQLLRRLRHKNVIQLVDVLYNEEKQKMYMVMEYCVCGMQEMLDSVPEKRFPVCQAHGYFCQLIDGLEYLHSQGIVHKDIKPGNLLLTTGGTLKISDLGVAEALHPFAADDTCRTSQGSPAFQPPEIANGLDTFSGFKVDIWSAGVTLYNITTGLYPFEGDNIYKLFENIGKGSYAIPGDCGPPLSDLLKGMLEYEPAKRFSIRQIRQHSWFRKKHPPAEAPVPIPPSPDTKDRWRSMTVVPYLEDLHGADEDEDLFDIEDDIIYTQDFTVPGQVPEEEASHNGQRRGLPKAVCMNGTEAAQLSTKSRAEGRAPNPARKACSASSKIRRLSACKQQ [Q7E] and MEVVDPQQLGMFTEGELMSVGMDTFIHRIWSTEVIYQPRRKRAKLIGKYLMGDLLGEGSYGKVKEVLDSETLCRRAVKILKKKKLRRIPNGEANVKKEIQLLRRLRHKNVIQLVDVLYNEEKQKMYMVMEYCVCGMQEMLDSVPEKRFPVCQAHGYFCQLIDGLEYLHSQGIVHKDIKPGNLLLTTGGTLKISDLGVAEALHPFAADDTCRTSQGSPAFQPPEIANGLDTFSGFKVDIWSAGVTLYNITTGLYPFEGDNIYKLFENIGKGSYAIPGDCGPPLSDLLKGMLEYEPAKRFSIRQIRQHSWFRKKHPPAEAPVPIPPSPDTKDRWRSMTVVPYLEDLHGADEDEDLFDIEDDIIYTQDFTVPGQVPEEEASHNGQRRGLPKAVCMNGTEAAQLSTKSRAEGRAPNPARKACSASSKIRRLSACKQQ [D30W] are within error of each other in STK11 functional score: 1.27 ± 0.34 for the first, 1.3 ± 0.58 for the second.

MEVVDPQQLGMFTEGELMSVGMDTFIHRIDSTEVIYQPRRKRAKLIGKYLMGDLLGEGSYGKVKEVLDSETLCRRAVKILKKKKLRRIPNGEANVKKEIQLLRRLRHKNVIQLVDVLYNEEKQKMYMVMEYCVCGMQEMLDSVPEKRFPVCQAHGYFCQLIDGLEYLHSQGIVHKDIKPGNLLLTTGGTLKISDLGVAEALHPFAADDTCRTSQGSPAFQPPEIANGLDTFSGFKVDIWSAGVTLYNITTGLYPFEGDNIYKLFENIGKGSYAIPGDCGPPLSDLLKGMLEYEPAKRFSIRQIRQHSWFRKKHPPAEAPVPIPPSPDTKDRWRSMTVVPYLEDLHGADEDEDLFDIEDDIIYTQDFTVPGQVPEEEASHNGQRRGLPKAVCMNGTEAAQLATKSRAEGRAPNPARKACSASSKIRRLSACKQQ [S401A] and MEVVDPQQLGMFTEGELMSVGMDTFIHRIDSTEVIYQPRRKRAKLIGKYLMGDLLGEGSYGKVKEVLDSETLCRRAVKILKKKKLRRIPNGEANVKKEIQLLRRLRHKNVIQLVDVLYNEEKQKMYMVMEYCVCGMQEMLDSVPEKRFPVCQAHGYFCQLIDGLEYLHSQGIVHKDIKPGNLLLTTGGTLKISDLGVAEALHPFAADDTCRTSQGSPAFQPPEIANGLDTFSGFKVDIWSAGVTLYNITTGLYPFEGDNIYKLFENIGKGSYAIPGDCGPPLSDLLKGMLEYEPAKRFSIRQIRQHSWFRKKHPPAEAPVPIPPSPDTKDRWRSMTVVPYLEDLHGADEDEDLFDIEDDIIYTQDFTVPGQVPEEVASHNGQRRGLPKAVCMNGTEAAQLSTKSRAEGRAPNPARKACSASSKIRRLSACKQQ [E376V] are within error of each other in STK11 functional score: 1.54 ± 0.33 for the first, 1.07 ± 0.15 for the second.

First: MEVVDPQQLGMFTEGELMSVGMDTFIHRIDSTEVIYQPRRKRAKLIGKYLMGDLLGEGSYGKVKEVLDSETLCRRAVKILKKKKLRRIPNGEANVKKEIQLLRRLRHKNVIQLVDVLYNEEKQKMYMVMEYCVCGMQEMLDSVPEKRFPVCQAHGYFCQLIDGLEYLHSQGIVHKDIKPGNLLLTTGGTLKISDLGVIEALHPFAADDTCRTSQGSPAFQPPEIANGLDTFSGFKVDIWSAGVTLYNITTGLYPFEGDNIYKLFENIGKGSYAIPGDCGPPLSDLLKGMLEYEPAKRFSIRQIRQHSWFRKKHPPAEAPVPIPPSPDTKDRWRSMTVVPYLEDLHGADEDEDLFDIEDDIIYTQDFTVPGQVPEEEASHNGQRRGLPKAVCMNGTEAAQLSTKSRAEGRAPNPARKACSASSKIRRLSACKQQ [A198I]
Second: MEVVDPQQLGMFTEGELMSVGMDTFIHRIDSTEVIYQPRRKRAKLIGKYLMGDLLGEGSYGKVKEVLDSETLCRRAVKILKKKKLRRIPNGEANVKKEIQLLRRLRHKNVIQLVDVLYNEEKQKMYMVMEYCVCGMQEMLDSVPEKRFPVCQAHGYFCQLIDGLEYLHSQGIVHKDIKPGNLLLTTGGTLKISDLGVAEALHPFAADDTIRTSQGSPAFQPPEIANGLDTFSGFKVDIWSAGVTLYNITTGLYPFEGDNIYKLFENIGKGSYAIPGDCGPPLSDLLKGMLEYEPAKRFSIRQIRQHSWFRKKHPPAEAPVPIPPSPDTKDRWRSMTVVPYLEDLHGADEDEDLFDIEDDIIYTQDFTVPGQVPEEEASHNGQRRGLPKAVCMNGTEAAQLSTKSRAEGRAPNPARKACSASSKIRRLSACKQQ [C210I]
The STK11 functional score of the first is lower: -0.192 ± 0.12 for the first, 1.12 ± 0.19 for the second.
